Assays:
NRSYM1(531-976)-myc [1] = molecular target: T1, NRSYM1(531-976)-myc (Lotus japonicus (WT, MG-20?), UniProt A0A2Z5V8A6 531-976); assay: EMSA; 20 mM HEPES-KOH pH 7.9, 50 mM KCl, 1 mM DTT, 4% glycerol, 0.1% Triton X-100, BSA (2 mg) and salmon sperm DNA (1 mg) as printed, 10 ul, 30 min room temperature; conditions: protein: ivt, tags: 3xMyc (cds cloned downstream of the tag, N-terminal), 5' overhang 4 nt (ggtg) on both strands as printed
NRSYM1(531-976)-myc [2] = molecular target: T1, NRSYM1(531-976)-myc; assay: competition; unlabeled competitor 20x/100x vs CLE-RS2-1 probe; 20 mM HEPES-KOH pH 7.9, 50 mM KCl, 1 mM DTT, 4% glycerol, 0.1% Triton X-100, BSA (2 mg) and salmon sperm DNA (1 mg) as printed, 10 ul, 30 min room temperature; conditions: protein: ivt; tags: 3xMyc (cds cloned downstream of the tag, N-terminal); label: biotin (probe); 5' overhang 4 nt (ggtg) on both strands as printed

T1 sequence (A0A2Z5V8A6 entry or part of it): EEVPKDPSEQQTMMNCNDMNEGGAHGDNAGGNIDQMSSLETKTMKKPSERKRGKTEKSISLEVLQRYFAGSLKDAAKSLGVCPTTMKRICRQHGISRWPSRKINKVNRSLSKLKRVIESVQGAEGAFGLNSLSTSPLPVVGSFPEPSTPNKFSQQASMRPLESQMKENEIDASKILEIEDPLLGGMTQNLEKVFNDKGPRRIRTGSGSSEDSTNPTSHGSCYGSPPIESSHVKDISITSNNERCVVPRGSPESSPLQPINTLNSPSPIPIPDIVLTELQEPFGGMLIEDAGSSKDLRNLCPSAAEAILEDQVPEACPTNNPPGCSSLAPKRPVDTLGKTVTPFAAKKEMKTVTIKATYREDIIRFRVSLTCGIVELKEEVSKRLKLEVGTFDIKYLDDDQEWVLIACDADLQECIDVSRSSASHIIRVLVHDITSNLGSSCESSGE

B1: LjNIR1-3 (dsDNA)
DNA 1: GGTGACACAAACACGACCCTTTGTCACAACCAAAGGTCCATTGTAGCA
DNA 2: GGTGTGCTACAATGGACCTTTGGTTGTGACAAAGGGTCGTGTTTGTGT
- binding result (NRSYM1(531-976)-myc [1]; label: biotin (probe)): binds

B2: LjNIR1-3m1 (dsDNA)
DNA 1: GGTGACACAAACACGAGGGAATGTCACAACCAAAGGTCCATTGTAGCA
DNA 2: GGTGTGCTACAATGGACCTTTGGTTGTGACATTCCCTCGTGTTTGTGT
- binding result (NRSYM1(531-976)-myc [1]; label: biotin): no binding

B3: CLE-RS2-3 (dsDNA)
DNA 1: GGTGGTATCAAACTGACCCCTAGTTTCAGTCCAAAGCCACCTTGATTG
DNA 2: GGTGCAATCAAGGTGGCTTTGGACTGAAACTAGGGGTCAGTTTGATAC
- binding result (NRSYM1(531-976)-myc [1]; label: biotin (probe)): binds

B4: CLE-RS2-4 (dsDNA)
DNA 1: GGTGATATATTCATGATCTTTAATTCACTTGAAGAGTTAGTGATTGAT
DNA 2: GGTGATCAATCACTAACTCTTCAAGTGAATTAAAGATCATGAATATAT
- binding result (NRSYM1(531-976)-myc [1]; label: biotin (probe)): binds

B5: CLE-RS2-1 (dsDNA)
DNA 1: GGTGTGTGAGTTCTGACCCTTAAGCCTTGGAAAGGACAGTCATGCAA
DNA 2: GGTGTTGCATGACTGTCCTTTCCAAGGCTTAAGGGTCAGAACTCACA
- binding result (NRSYM1(531-976)-myc [1]; label: biotin (probe)): binds

B6: CLE-RS2-1m (dsDNA)
DNA 1: GGTGTGTGAGTTCTGAGGGAAAAGCCTTGGAAAGGACAGTCATGCAA
DNA 2: GGTGTTGCATGACTGTCCTTTCCAAGGCTTTTCCCTCAGAACTCACA
- binding result (NRSYM1(531-976)-myc [2]): no binding

Source: PMC5799372, “A NIN-LIKE PROTEIN mediates nitrate-induced control of root nodule symbiosis in Lotus japonicus”
